Laboratory results as given in publication PMC11869295, “Molecular Principles of Proton-Coupled Quinone Reduction in the Membrane-Bound Superoxide Oxidase” (Journal of the American Chemical Society, 2025).
Numbering of substitutions follows the chain as printed. Names may count otherwise. Blank lines part the entries; values can stand above or below the molecule they belong to.

Columns and labels:
Assay in all cases: WST-1 competition assay, decrease of formazan formation rate on SOO addition
[1] = target: T1, superoxide oxidase (SOO); CybB (Escherichia coli, UniProt P0ABE5, H158F); format: biochemical; conditions: apparent Km; forward reaction, superoxide from xanthine oxidase/hypoxanthine, bo3 oxidase regenerates quinone, 50 nM SOO, 100 mM sodium phosphate pH 8, 0.05% DDM; range printed jointly for H158A and H
T1 construct: full length with C-terminal 8xHis tag, expressed in E. coli BL21(DE3) pLysS, membrane protein purified in detergent (OGNG, assayed in DDM), two b hemes

[2] = target: T2, superoxide oxidase (SOO); CybB (Escherichia coli, UniProt P0ABE5, H158A); format: biochemical; conditions: apparent Km; forward reaction, superoxide from xanthine oxidase/hypoxanthine, bo3 oxidase regenerates quinone, 50 nM SOO, 100 mM sodium phosphate pH 8, 0.05% DDM; range printed jointly for H158A and H
T2 construct: full length with C-terminal 8xHis tag, expressed in E. coli BL21(DE3) pLysS, membrane protein purified in detergent (OGNG, assayed in DDM), two b hemes

[3] = substrate: COC1=C(OC)C(=O)C(C/C=C(\C)CCC=C(C)C)=C(C)C1=O; format: biochemical, Escherichia coli; conditions: apparent Km, forward reaction, superoxide from xanthine oxidase/hypoxanthine, bo3 oxidase regenerates quinone, 50 nM SOO, 100 mM sodium phosphate pH 8, 0.05% DDM

T1 sequence (P0ABE5 whole entry H158F): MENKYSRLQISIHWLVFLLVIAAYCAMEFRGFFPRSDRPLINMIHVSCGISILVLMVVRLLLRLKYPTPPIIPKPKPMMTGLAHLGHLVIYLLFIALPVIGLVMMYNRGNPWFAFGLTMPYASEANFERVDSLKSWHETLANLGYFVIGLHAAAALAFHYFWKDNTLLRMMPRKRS
T2 sequence (P0ABE5 whole entry H158A): as the sequence (P0ABE5 whole entry H158F) above, with F158A counted along it

Km [1]: 8 to 13 µM
Km [2]: 8 to 13 µM
Molecule: COC1=C(OC)C(=O)C(C/C=C(\C)CCC=C(C)C)=C(C)C1=O [ubiquinone Q2]

B1: superoxide oxidase (SOO); CybB (Escherichia coli K-12) (protein)
chain: MENKYSRLQISIHWLVFLLVIAAYCAMEFRGFFPRSDRPLINMIHVSCGISILVLMVVRLLLRLKYPTPPIIPKPKPMMTGLAHLGHLVIYLLFIALPVIGLVMMYNRGNPWFAFGLTMPYASEANFERVDSLKSWHETLANLGYFVIGLHAAAALAHHYFWKDNTLLRMMPRKRS
notes: full length with C-terminal 8xHis tag, expressed in E. coli BL21(DE3) pLysS, membrane protein purified in detergent (OGNG, assayed in DDM), two b hemes
Km [3]: 0.4 µM

B2: superoxide oxidase (SOO); CybB (Escherichia coli K-12; D164E) (protein)
chain: B1 chain with D164E
notes: as for B1
Km [3]: 3 µM

B3: superoxide oxidase (SOO); CybB (Escherichia coli K-12; D164A) (protein)
chain: B1 chain with D164A
notes: as for B1
Km [3]: 5 µM
